T1: GST-IκBα (1-54), regulatory domain of IκBα, P25963
T1 chain: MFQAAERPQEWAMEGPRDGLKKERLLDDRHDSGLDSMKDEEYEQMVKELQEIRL

T2: GST-NF-κB2 (754-900) (p100C), C terminal regulatory domain of NF-κB2, Q00653
T2 chain: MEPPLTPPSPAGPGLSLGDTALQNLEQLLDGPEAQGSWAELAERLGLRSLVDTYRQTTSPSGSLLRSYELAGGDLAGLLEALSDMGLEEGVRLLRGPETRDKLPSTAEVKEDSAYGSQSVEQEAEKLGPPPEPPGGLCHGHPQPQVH

B1: NF-κB inducing kinase (NIK), recombinant, immunopurified, produced in Sf9 cells using baculoviruses (protein)
chain: MAVMEMACPGAPGSAVGQQKELPKAKEKTPPLGKKQSSVYKLEAVEKSPVFCGKWEILNDVITKGTAKEGSEAGPAAISIIAQAECENSQEFSPTFSERIFIAGSKQYSQSESLDQIPNNVAHATEGKMARVCWKGKRRSKARKKRKKKSSKSLAHAGVALAKPLPRTPEQESCTIPVQEDESPLGAPYVRNTPQFTKPLKEPGLGQLCFKQLGEGLRPALPRSELHKLISPLQCLNHVWKLHHPQDGGPLPLPTHPFPYSRLPHPFPFHPLQPWKPHPLESFLGKLACVDSQKPLPDPHLSKLACVDSPKPLPGPHLEPSCLSRGAHEKFSVEEYLVHALQGSVSSGQAHSLTSLAKTWAARGSRSREPSPKTEDNEGVLLTEKLKPVDYEYREEVHWATHQLRLGRGSFGEVHRMEDKQTGFQCAVKKVRLEVFRAEELMACAGLTSPRIVPLYGAVREGPWVNIFMELLEGGSLGQLVKEQGCLPEDRALYYLGQALEGLEYLHSRRILHGDVKADNVLLSSDGSHAALCDFGHAVCLQPDGLGKSLLTGDYIPGTETHMAPEVVLGRSCDAKVDVWSSCCMMLHMLNGCHPWTQFFRGPLCLKIASEPPPVREIPPSCAPLTAQAIQEGLRKEPIHRVSAAELGGKVNRALQQVGGLKSPWRGEYKEPRHPPPNQANYHQTLHAQPRELSPRAPGPRPAEETTGRAPKLQPPLPPEPPEPNKSPPLTLSKEESGMWEPLPLSSLEPAPARNPSSPERKATVPEQELQQLEIELFLNSLSQPFSLEEQEQILSCLSIDSLSLSDDSEKNPSKASQSSRDTLSSGVHSWSSQAEARSSSWNMVLARGRPTDTPSYFNGVKVQIQSLNGEHLHIREFHRVKVGDIATGISSQIPAAAFSLVTKDGQPVRYDMEVPDSGIDLQCTLAPDGSFAWSWRVKHGQLENRP
B2: IκB kinase α (IKKα), recombinant, chromatographically pure, produced in Sf9 cells using baculoviruses (protein)
chain: MERPPGLRPGAGGPWEMRERLGTGGFGNVCLYQHRELDLKIAIKSCRLELSTKNRERWCHEIQIMKKLNHANVVKACDVPEELNILIHDVPLLAMEYCSGGDLRKLLNKPENCCGLKESQILSLLSDIGSGIRYLHENKIIHRDLKPENIVLQDVGGKIIHKIIDLGYAKDVDQGSLCTSFVGTLQYLAPELFENKPYTATVDYWSFGTMVFECIAGYRPFLHHLQPFTWHEKIKKKDPKCIFACEEMSGEVRFSSHLPQPNSLCSLIVEPMENWLQLMLNWDPQQRGGPVDLTLKQPRCFVLMDHILNLKIVHILNMTSAKIISFLLPPDESLHSLQSRIERETGINTGSQELLSETGISLDPRKPASQCVLDGVRGCDSYMVYLFDKSKTVYEGPFASRSLSDCVNYIVQDSKIQLPIIQLRKVWAEAVHYVSGLKEDYSRLFQGQRAAMLSLLRYNANLTKMKNTLISASQQLKAKLEFFHKSIQLDLERYSEQMTYGISSEKMLKAWKEMEEKAIHYAEVGVIGYLEDQIMSLHAEIMELQKSPYGRRQGDLMESLEQRAIDLYKQLKHRPSDHSYSDSTEMVKIIVHTVQSQDRVLKELFGHLSKLLGCKQKIIDLLPKVEVALSNIKEADNTVMFMQGKRQKEIWHLLKIACTQSSARSLVGSSLEGAVTPQTSAWLPPTSAEHDHSLSCVVTPQDGETSAQMIEENLNCLGHLSTIIHEANEEQGNSMMNLDWSWLTE
B3: IKKβ, recombinant, chromatographically pure, produced in Sf9 cells using baculoviruses (protein)
chain: MSWSPSLTTQTCGAWEMKERLGTGGFGNVIRWHNQETGEQIAIKQCRQELSPRNRERWCLEIQIMRRLTHPNVVAARDVPEGMQNLAPNDLPLLAMEYCQGGDLRKYLNQFENCCGLREGAILTLLSDIASALRYLHENRIIHRDLKPENIVLQQGEQRLIHKIIDLGYAKELDQGSLCTSFVGTLQYLAPELLEQQKYTVTVDYWSFGTLAFECITGFRPFLPNWQPVQWHSKVRQKSEVDIVVSEDLNGTVKFSSSLPYPNNLNSVLAERLEKWLQLMLMWHPRQRGTDPTYGPNGCFKALDDILNLKLVHILNMVTGTIHTYPVTEDESLQSLKARIQQDTGIPEEDQELLQEAGLALIPDKPATQCISDGKLNEGHTLDMDLVFLFDNSKITYETQISPRPQPESVSCILQEPKRNLAFFQLRKVWGQVWHSIQTLKEDCNRLQQGQRAAMMNLLRNNSCLSKMKNSMASMSQQLKAKLDFFKTSIQIDLEKYSEQTEFGITSDKLLLAWREMEQAVELCGRENEVKLLVERMMALQTDIVDLQRSPMGRKQGGTLDDLEEQARELYRRLREKPRDQRTEGDSQEMVRLLLQAIQSFEKKVRVIYTQLSKTVVCKQKALELLPKVEEVVSLMNEDEKTVVRLQEKRQKELWNLLKIACSKVRGPVSGSPDSMNASRLSQPGQLMSQPSTASNSLPEPAKKSEELVAEAHNLCTLLENAIQDTVREQDQSFTALDWSWLQTEEEEHSCLEQAS

Columns and labels:
[1] = biological target: T1, GST-IκBα (1-54), regulatory domain of …
[2] = biological target: T2, GST-NF-κB2 (754-900) (p100C), C …

Protein	phosphorylation of GST-IκBα (1-54) in an in vitro kinase assay [1]	phosphorylation of the NF-κB2 C-terminal regulatory domain in vitro [2]	phosphorylation of GST-NF-κB2 (754-900) (p100C) in an in vitro kinase assay [2]
B1	not at all by NIK	both NIK and IKKα phosphorylate the C-terminal regulatory domain of NF-κB2	
B2	the regulatory domain of Iκ Bα was phosphorylated more efficiently by IKKβ than by IKKα	IKK is a more effective NF-B2 C-terminal kinase than NIK	the C terminal regulatory domain of NF-κB2 was phosphorylated most efficiently by IKKα
B3	the regulatory domain of Iκ Bα was phosphorylated more efficiently by IKKβ than by IKKα		

— patent publication US20060105414
